Assay results as given in paper PMC5156300 (mBio, 2016).

Molecular target: T1, NP from influenza virus A/WSN/33 with a C-terminal His tag (Influenza A virus A/WSN/33), P15682
T1 chain: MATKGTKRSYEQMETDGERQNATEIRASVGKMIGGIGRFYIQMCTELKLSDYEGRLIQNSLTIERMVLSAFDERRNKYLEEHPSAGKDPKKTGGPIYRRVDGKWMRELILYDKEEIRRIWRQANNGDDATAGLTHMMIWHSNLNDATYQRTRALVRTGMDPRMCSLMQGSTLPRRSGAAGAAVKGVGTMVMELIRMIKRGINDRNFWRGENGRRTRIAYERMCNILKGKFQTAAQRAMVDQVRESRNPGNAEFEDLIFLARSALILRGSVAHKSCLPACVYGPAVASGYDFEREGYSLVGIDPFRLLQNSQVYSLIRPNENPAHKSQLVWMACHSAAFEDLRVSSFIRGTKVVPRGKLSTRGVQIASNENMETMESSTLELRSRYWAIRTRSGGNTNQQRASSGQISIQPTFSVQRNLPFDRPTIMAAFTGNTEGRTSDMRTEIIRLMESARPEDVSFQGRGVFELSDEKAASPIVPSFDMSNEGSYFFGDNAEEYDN
Assay: crystal structure
Details: remark: other sources report otherwise

B1: NP from influenza virus A/WSN/33 with a C-terminal His tag, P15682 1-498 (natural protein)
chain: MATKGTKRSYEQMETDGERQNATEIRASVGKMIGGIGRFYIQMCTELKLSDYEGRLIQNSLTIERMVLSAFDERRNKYLEEHPSAGKDPKKTGGPIYRRVDGKWMRELILYDKEEIRRIWRQANNGDDATAGLTHMMIWHSNLNDATYQRTRALVRTGMDPRMCSLMQGSTLPRRSGAAGAAVKGVGTMVMELIRMIKRGINDRNFWRGENGRRTRIAYERMCNILKGKFQTAAQRAMVDQVRESRNPGNAEFEDLIFLARSALILRGSVAHKSCLPACVYGPAVASGYDFEREGYSLVGIDPFRLLQNSQVYSLIRPNENPAHKSQLVWMACHSAAFEDLRVSSFIRGTKVVPRGKLSTRGVQIASNENMETMESSTLELRSRYWAIRTRSGGNTNQQRASSGQISIQPTFSVQRNLPFDRPTIMAAFTGNTEGRTSDMRTEIIRLMESARPEDVSFQGRGVFELSDEKAASPIVPSFDMSNEGSYFFGDNAEEYDN
Q: B1 was tested. Which stoichiometry N did it give?
A: 3
